Measurements: patent US20200147241A1 (AMICUS THERAPEUTICS, published 2020)

Target: the molecule itself
Assay: reduced and non-reduced SDS-PAGE and Western blot of 293HEK cell lysate and culture media (homodimer formation)
From the text: The formation of disulfide bonded dimers of modified α-GAL was examined in cell lysate and culture media (FIG. 2A). Clones of each α-GAL construct were transiently expressed in 293HEK cell. Cell lysates and culture media were run on 4-12% gradient SDS-PAGE and transferred to nitrocellulose. α-GAL was detected by Western Blotting with rabbit monoclonal anti- α-GAL 1:2000 (abcam ab168341).
Reduced and non-reduced samples were subjected to electrophoresis and Western blotting.

Protein	binding result
Human α-GAL M51C-G360C (enzyme, It is the full precursor entry; Transiently expressed in 293HEK cells, tested in cell lysate and culture media; also called M51C-G360C α-GAL; modified α-galactosidase A) LDNGLARTPTMGWLHWERFCCNLDCQEEPDSCISEKLFMEMAELMVSEGWKDAGYEYLCIDDCWMAPQRDSEGRLQADPQRFPHGIRQLANYVHSKGLKLGIYADVGNKTCAGFPGSFGYYDIDAQTFADWGVDLLKFDGCYCDSLENLADGYKHMSLALNRTGRSIVYSCEWPLYMWPFQKPNYTEIRQYCNHWRNFADIDDSWKSIKSILDWTSFNQERIVDVAGPGGWNDPDMLVIGNFGLSWNQQVTQMALWAIMAAPLFMSNDLRHISPQAKALLQDKDVIAINQDPLGKQGYQLRQGDNFEVWERPLSGLAWAVAMINRQEICGPRSYTIAVASLGKGVACNPACFITQLLPVKRKLGFYEWTSRLRSHINPTGTVLLQLENTMQMSLKDLL	binds
Human α-GAL D233C-I359C (enzyme, It is the full precursor entry; Transiently expressed in 293HEK cells, tested in cell lysate and culture media; also called D233C-I359C α-GAL; modified α-galactosidase A) LDNGLARTPTMGWLHWERFMCNLDCQEEPDSCISEKLFMEMAELMVSEGWKDAGYEYLCIDDCWMAPQRDSEGRLQADPQRFPHGIRQLANYVHSKGLKLGIYADVGNKTCAGFPGSFGYYDIDAQTFADWGVDLLKFDGCYCDSLENLADGYKHMSLALNRTGRSIVYSCEWPLYMWPFQKPNYTEIRQYCNHWRNFADICDSWKSIKSILDWTSFNQERIVDVAGPGGWNDPDMLVIGNFGLSWNQQVTQMALWAIMAAPLFMSNDLRHISPQAKALLQDKDVIAINQDPLGKQGYQLRQGDNFEVWERPLSGLAWAVAMINRQECGGPRSYTIAVASLGKGVACNPACFITQLLPVKRKLGFYEWTSRLRSHINPTGTVLLQLENTMQMSLKDLL	binds
